Laboratory results as given in the supplement of paper PMC7125110.
± gives the standard error. This sample holds only a part of the variants without activity.

B1: glmS ribozyme (parent)
chain: AUAAAAGCGCCAGAACUACAGAAAUGUAGUUGACGAGGAGGAGGUUUAUCGAAUUUUCGGCGGAUGCCUCCAAA

Key:
Details in all cases: with glucosamine-6-phosphate
glucosamine-6-phosphate [1] = variants of: B1; assay: self-cleavage kobs at 40 uM GlcN6P; higher = faster cleavage; RNA array
Outline: (§1)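 Barcoded ribozyme variants on sequenced MiSeq chips were transcribed in situ by E. coli RNA polymerase and followed at 37 °C through a hybridised Cy3 probe. Glucosamine-6-phosphate at 40 μM to 10 mM in HEPES/KCl/Mg(OAc)2 buffer was flowed in, and tiles were imaged over ~14 h. Signals were normalised to baseline and to non-cleaving reference variants, and per-tile medians were fit to one- or two-exponential decays to give kobs. Weighted Michaelis–Menten fits across concentrations gave kcat and KM.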

glucosamine-6-phosphate [2] = variants of: B1; assay: self-cleavage kobs at 160 uM GlcN6P; higher = faster cleavage; RNA array
Outline: as §1

glucosamine-6-phosphate [3] = variants of: B1; assay: self-cleavage kobs at 640 uM GlcN6P; higher = faster cleavage; RNA array
Outline: as §1

glucosamine-6-phosphate [4] = variants of: B1; assay: self-cleavage kobs at 10000 uM GlcN6P; higher = faster cleavage; RNA array
Outline: as §1

glucosamine-6-phosphate [5] = variants of: B1; assay: self-cleavage kobs at 2500 uM GlcN6P; higher = faster cleavage; RNA array
Outline: as §1

Row | Variant | self-cleavage kobs at 40 uM GlcN6P (glucosamine-6-phosphate [1]) | self-cleavage kobs at 160 uM GlcN6P (glucosamine-6-phosphate [2]) | self-cleavage kobs at 640 uM GlcN6P (glucosamine-6-phosphate [3]) | self-cleavage kobs at 10000 uM GlcN6P (glucosamine-6-phosphate [4]) | self-cleavage kobs at 2500 uM GlcN6P (glucosamine-6-phosphate [5])
1 | C10A G40U | < 1e-05 s⁻¹ | < 1e-05 s⁻¹ | < 1e-05 s⁻¹ | < 1e-05 s⁻¹ | –
2 | G7U A12G | < 1e-05 s⁻¹ | < 1e-05 s⁻¹ | < 1e-05 s⁻¹ | < 1e-05 s⁻¹ | –
3 | U54G G62C | < 1e-05 s⁻¹ | < 1e-05 s⁻¹ | < 1e-05 s⁻¹ | < 1e-05 s⁻¹ | < 1e-05 s⁻¹
4 | G32A A33C | < 1e-05 s⁻¹ | < 1e-05 s⁻¹ | – | – | –
5 | A33C A36G G62U G66A | < 1e-05 s⁻¹ | – | < 1e-05 s⁻¹ | – | < 1e-05 s⁻¹
6 | C68U C70U C71U | < 1e-05 s⁻¹ | – | – | – | –
7 | U30A U54A G59U G62U C67U C70U | < 1e-05 s⁻¹ | – | – | < 1e-05 s⁻¹ | –
8 | C11G C34A A64C | < 1e-05 s⁻¹ | – | – | < 1e-05 s⁻¹ | –
9 | C8A C11G A12G C68U | < 1e-05 s⁻¹ | – | – | – | –
10 | C8G U31A G41C | < 1e-05 s⁻¹ | – | – | – | –
11 | C11A A33G G43U G44A U54C | < 1e-05 s⁻¹ | – | < 1e-05 s⁻¹ | < 1e-05 s⁻¹ | –
12 | G32A C70U | 6.22e-05 ± 6.9e-06 s⁻¹ | 0.000126 ± 2.7e-05 s⁻¹ | 0.000627 ± 9.7e-05 s⁻¹ | 0.00374 ± 0.00046 s⁻¹ | 0.000902 ± 0.00023 s⁻¹
13 | A39G C68U | 0.000529 ± 5e-05 s⁻¹ | 0.000783 ± 0.00025 s⁻¹ | 0.00223 ± 0.0005 s⁻¹ | 0.0156 ± 0.003 s⁻¹ | 0.00387 ± 0.0012 s⁻¹
14 | G38A G43U | < 1e-05 s⁻¹ | < 1e-05 s⁻¹ | < 1e-05 s⁻¹ | < 1e-05 s⁻¹ | –
15 | G13A A36G G44U A53U | < 1e-05 s⁻¹ | – | – | < 1e-05 s⁻¹ | < 1e-05 s⁻¹
16 | U30A A33U U56C | < 1e-05 s⁻¹ | – | – | – | –
17 | G9A A14C G37C G38U U49C U69A | < 1e-05 s⁻¹ | – | – | – | –
18 | G41U C68U C71A | < 1e-05 s⁻¹ | – | – | – | –
19 | G9A G51A | < 1e-05 s⁻¹ | – | – | < 1e-05 s⁻¹ | –
20 | U46G A53U U69C | 7.38e-05 ± 2.7e-05 s⁻¹ | – | – | 0.00109 ± 0.0003 s⁻¹ | –
21 | C8G A36C | < 1e-05 s⁻¹ | < 1e-05 s⁻¹ | < 1e-05 s⁻¹ | – | < 1e-05 s⁻¹
22 | G32A G43U C67U | < 1e-05 s⁻¹ | – | – | – | < 1e-05 s⁻¹
23 | U31G C61G | < 1e-05 s⁻¹ | < 1e-05 s⁻¹ | < 1e-05 s⁻¹ | < 1e-05 s⁻¹ | –
24 | C16A C70U | 5.31e-05 ± 7.6e-06 s⁻¹ | 0.000117 ± 3.3e-05 s⁻¹ | 0.000192 ± 2.7e-05 s⁻¹ | 0.0015 ± 0.00026 s⁻¹ | 0.000365 ± 5.1e-05 s⁻¹
25 | A33G C50G G66U | 0.000106 ± 2.6e-05 s⁻¹ | – | 0.000115 ± 5.2e-05 s⁻¹ | 5.3e-05 ± 2.2e-05 s⁻¹ | 0.000301 ± 0.0001 s⁻¹

Row | Variant | self-cleavage kobs at 40 uM GlcN6P (glucosamine-6-phosphate [1]) | self-cleavage kobs at 160 uM GlcN6P (glucosamine-6-phosphate [2]) | self-cleavage kobs at 640 uM GlcN6P (glucosamine-6-phosphate [3]) | self-cleavage kobs at 10000 uM GlcN6P (glucosamine-6-phosphate [4]) | self-cleavage kobs at 2500 uM GlcN6P (glucosamine-6-phosphate [5])
26 | C10G C68A | < 1e-05 s⁻¹ | – | – | – | –
27 | G13C G35C | < 1e-05 s⁻¹ | < 1e-05 s⁻¹ | – | < 1e-05 s⁻¹ | < 1e-05 s⁻¹
28 | G29C G38U A48C | < 1e-05 s⁻¹ | – | < 1e-05 s⁻¹ | < 1e-05 s⁻¹ | –
29 | U31A A36G A52C | < 1e-05 s⁻¹ | – | – | < 1e-05 s⁻¹ | –
30 | A6G G38A C50G C71A | 9.73e-05 ± 2.8e-05 s⁻¹ | – | – | – | –
31 | A15G A53G | 0.00127 ± 0.00016 s⁻¹ | 0.00183 ± 0.00039 s⁻¹ | 0.0109 ± 0.0017 s⁻¹ | 0.0345 ± 0.008 s⁻¹ | 0.022 ± 0.0053 s⁻¹
32 | A6G G35U | < 1e-05 s⁻¹ | < 1e-05 s⁻¹ | < 1e-05 s⁻¹ | < 1e-05 s⁻¹ | < 1e-05 s⁻¹
33 | G41C G43A U46G C68A C70U | < 1e-05 s⁻¹ | – | – | – | –
34 | C8A U25C G37U U69G | 0.000134 ± 3.6e-05 s⁻¹ | – | 0.000488 ± 0.00011 s⁻¹ | – | –
35 | G44C A52U | < 1e-05 s⁻¹ | – | – | – | –
36 | A33G C50U C67A | < 1e-05 s⁻¹ | – | – | – | –
37 | U30A U31C C50G U56G C61G | 3.8e-05 ± 1.5e-05 s⁻¹ | – | – | – | –
38 | G35C A48G A52C C70G | < 1e-05 s⁻¹ | – | – | – | –
39 | A36U C70A | 3.96e-05 ± 1e-05 s⁻¹ | 4.33e-05 ± 1.3e-05 s⁻¹ | 0.000143 ± 3.1e-05 s⁻¹ | 2.74e-05 ± 7.6e-06 s⁻¹ | –
40 | A14U G51A U57C G60U A64G U65G | < 1e-05 s⁻¹ | – | – | – | –
41 | G59A G60U C61A | < 1e-05 s⁻¹ | – | < 1e-05 s⁻¹ | – | < 1e-05 s⁻¹
42 | C8G A15U G62C | < 1e-05 s⁻¹ | – | < 1e-05 s⁻¹ | – | –
43 | G35U A52C | < 1e-05 s⁻¹ | – | – | < 1e-05 s⁻¹ | –
44 | G29C U45A C68G | < 1e-05 s⁻¹ | – | – | < 1e-05 s⁻¹ | –
45 | G35C C50A | < 1e-05 s⁻¹ | < 1e-05 s⁻¹ | < 1e-05 s⁻¹ | < 1e-05 s⁻¹ | < 1e-05 s⁻¹
46 | C16G G29C | 0.000686 ± 9.2e-05 s⁻¹ | 0.00103 ± 0.00047 s⁻¹ | 0.00972 ± 0.0043 s⁻¹ | 0.0294 ± 0.0058 s⁻¹ | 0.00501 ± 0.0018 s⁻¹
47 | G13C A33G A48C | < 1e-05 s⁻¹ | – | – | – | < 1e-05 s⁻¹
48 | C34G A53G U56G C67U | < 1e-05 s⁻¹ | – | – | – | –
49 | A6G C58A | < 1e-05 s⁻¹ | < 1e-05 s⁻¹ | < 1e-05 s⁻¹ | – | < 1e-05 s⁻¹
